Several values for one entry are separate records, joined by “and”; a condition that tells them apart may be missing. Equal entries are not always repeated.
Key:
[1] = substrate: COC(=O)[C@H](c1ccccc1Cl)N1CCc2sccc2C1; test: not read
[2] = substrate: CC(=O)Oc1ccc2c3c1O[C@H]1[C@@H](OC(C)=O)C=C[C@H]4[C@@H](C2)N(C)CC[C@@]341; test: (§1) Activity at human recombinant CES1 expressed in baculovirus-infected Spodoptera frugiperda Sf21 cells assessed as substrate hydrolysis by fluorescence assay
[3] = substrate: CC(C)=C[C@H]1[C@H](C(=O)OCc2coc(Cc3ccccc3)c2)C1(C)C; test: as §1
[4] = substrate: [H][C@@]1([C@@H](C(=O)OC)c2ccccc2)CCCCN1; test: as §1
[5] = substrate: N[C@@H](CC(=O)O)C(=O)OC[C@H]1O[C@@H](n2cc(F)c(=O)[nH]c2=O)C[C@@H]1O; test: as §1
[6] = substrate: CC(C)C[C@H](N)C(=O)OC[C@H]1O[C@@H](n2cc(F)c(=O)[nH]c2=O)C[C@@H]1O; test: as §1
[7] = substrate: COc1ccc2cc([C@H](C#N)OC(=O)[C@@H]3[C@@H](C=C(Cl)Cl)C3(C)C)ccc2c1; test: as §1
[8] = substrate: COC(=O)[C@H]1[C@@H](OC(=O)c2ccccc2)C[C@@H]2CC[C@H]1N2C; test: as §1
[9] = substrate: CN(C)C(=O)COC(=O)Cc1ccc(OC(=O)c2ccc(NC(=N)N)cc2)cc1; test: as §1
[10] = substrate: CCOC(=O)C1(c2ccccc2)CCN(C)CC1; test: as §1
[11] = substrate: CCOC(=O)[C@H](CCc1ccccc1)N[C@H]1CS[C@H](c2cccs2)CN(CC(=O)O)C1=O; test: as §1
[12] = substrate: CCOC(=O)[C@H](CCc1ccccc1)N[C@H]1CCCN2CCC[C@@H](C(=O)O)N2C1=O; test: as §1
[13] = substrate: CC1(C)[C@H](C=C(Cl)Cl)[C@@H]1C(=O)OCc1cccc(Oc2ccccc2)c1; test: as §1
[14] = substrate: COc1ccc2cc([C@H](C#N)OC(=O)[C@H]3[C@H](C=C(Cl)Cl)C3(C)C)ccc2c1; test: as §1
[15] = substrate: CC(C)[C@H](N)C(=O)OC[C@H]1O[C@@H](n2cc(F)c(=O)[nH]c2=O)C[C@@H]1O; test: as §1
[16] = substrate: CCCCCOC(=O)Nc1nc(=O)n([C@@H]2O[C@H](C)[C@@H](O)[C@H]2O)cc1F; test: as §1
[17] = substrate: COc1ccc2cc(C(C#N)OC(=O)C3C(C)(C)C3(C)C)ccc2c1; test: as §1
[18] = substrate: N[C@@H](Cc1ccccc1)C(=O)OC[C@H]1O[C@@H](n2cc(F)c(=O)[nH]c2=O)C[C@@H]1O; test: as §1
[19] = substrate: COc1cc(C(=O)OCCCN2CCCN(CCCOC(=O)c3cc(OC)c(OC)c(OC)c3)CC2)cc(OC)c1OC; test: as §1
[20] = substrate: CCc1c2c(nc3ccc(OC(=O)N4CCC(N5CCCCC5)CC4)cc13)-c1cc3c(c(=O)n1C2)COC(=O)[C@]3(O)CC; test: as §1
[21] = substrate: CC1(C)[C@@H](C=C(Cl)Cl)[C@@H]1C(=O)OCc1cccc(Oc2ccccc2)c1; test: as §1
[22] = substrate: CCOC(=O)[C@H](CCc1ccccc1)N[C@H]1CCc2ccccc2N(CC(=O)O)C1=O; test: as §1
[23] = substrate: CCCC(=O)Oc1ccc([N+](=O)[O-])cc1; test: as §1
[24] = substrate: COc1ccc2cc([C@H](C#N)OC(=O)[C@H]3[C@@H](C=C(Cl)Cl)C3(C)C)ccc2c1; test: as §1
[25] = substrate: COc1ccc(C(=O)N2CCCC2=O)cc1; test: as §1
[26] = substrate: COC(=O)[C@H](c1ccccc1)[C@H]1CCCCN1; test: as §1
[27] = substrate: CCOC(=O)[C@H](CCc1ccccc1)N[C@@H](C)C(=O)N(CC(=O)O)C1Cc2ccccc2C1; test: as §1
[28] = substrate: CC(=O)Oc1ccc([N+](=O)[O-])cc1; test: as §1
[29] = substrate: CC(=O)Oc1ccc2c(C)cc(=O)oc2c1; test: as §1
[30] = substrate: CCOC(=O)[C@H](CCc1ccccc1)N[C@@H](C)C(=O)N1C(=O)N(C)C[C@H]1C(=O)O; test: as §1
[31] = substrate: CCOC(=O)[C@H](CCc1ccccc1)N[C@@H](C)C(=O)N1Cc2ccccc2C[C@H]1C(=O)O; test: as §1
[32] = substrate: COc1ccc2cc([C@@H](C#N)OC(=O)[C@H]3[C@H](C=C(Cl)Cl)C3(C)C)ccc2c1; test: as §1
[33] = substrate: CC1(C)[C@H](C=C(Cl)Cl)[C@H]1C(=O)OCc1cccc(Oc2ccccc2)c1; test: as §1
[34] = substrate: COc1ccc2cc([C@H](C#N)OC(=O)[C@@H]3[C@H](C=C(Cl)Cl)C3(C)C)ccc2c1; test: as §1
[35] = substrate: CC(=O)O[C@H]1C=C[C@H]2[C@H]3Cc4ccc(O)c5c4[C@@]2(CCN3C)[C@H]1O5; test: as §1
[36] = substrate: CCOC(=O)C1=C[C@@H](OC(CC)CC)[C@H](NC(C)=O)[C@@H](N)C1; test: as §1
[37] = substrate: CC1(C)[C@H](C(=O)OCc2cccc(Oc3ccccc3)c2)[C@@H]1C=C(Cl)Cl; test: as §1
[38] = substrate: COc1ccc2cc([C@@H](C#N)OC(=O)[C@H]3[C@@H](C=C(Cl)Cl)C3(C)C)ccc2c1; test: as §1
[39] = substrate: COc1ccc2cc([C@@H](C#N)OC(=O)[C@@H]3[C@@H](C=C(Cl)Cl)C3(C)C)ccc2c1; test: as §1

B1: Liver carboxylesterase 1 (Homo sapiens) (protein)
chain: MWLRAFILATLSASAAWGHPSSPPVVDTVHGKVLGKFVSLEGFAQPVAIFLGIPFAKPPLGPLRFTPPQPAEPWSFVKNATSYPPMCTQDPKAGQLLSELFTNRKENIPLKLSEDCLYLNIYTPADLTKKNRLPVMVWIHGGGLMVGAASTYDGLALAAHENVVVVTIQYRLGIWGFFSTGDEHSRGNWGHLDQVAALRWVQDNIASFGGNPGSVTIFGESAGGESVSVLVLSPLAKNLFHRAISESGVALTSVLVKKGDVKPLAEQIAITAGCKTTTSAVMVHCLRQKTEEELLETTLKMKFLSLDLQGDPRESQPLLGTVIDGMLLLKTPEELQAERNFHTVPYMVGINKQEFGWLIPMQLMSYPLSEGQLDQKTAMSLLWKSYPLVCIAKELIPEATEKYLGGTDDTVKKKDLFLDLIADVMFGVPSVIVARNHRDAGAPTYMYEFQYRPSFSSDMKPKTVIGDHGDELFSVFGAPFLKEGASEEEIRLSKMVMKFWANFARNGNPNGEGLPHWPEYNQKEGYLQIGANTQAAQKLKDKEVAFWTNLFAKKAVEKPPQTEHIEL
[1]
  Km: 55.7 µM
[2]
  Km: 6300 µM
[3]
  Km: 6.72 µM
[4]
  Km: 89.9 µM
[5]
  Km: 3000 µM
[6]
  Km: 970 µM
[7]
  Km: 1.7 µM
[8]
  Km: 120 µM
[9]
  Km: 707 µM
[10]
  Km: 1900 µM
[11]
  Km: 786 µM
[12]
  Km: 1300 µM
[13]
  Km: 23.8 µM
[14]
  Km: 1.9 µM
[15]
  Km: 3580 µM
[16]
  Km: 1300 µM
[17]
  Km: 1.5 µM
[18]
  Km: 460 µM
[19]
  Km: 154 µM
[20]
  Km: 1450 µM
[21]
  Km: 9.8 µM
[22]
  Km: 734 µM
[23]
  Km: 130 µM
[24]
  Km: 1.5 µM
[25]
  Km: 85 µM and 95 µM
[26]
  Km: 43.8 µM
[27]
  Km: 1500 µM
[28]
  Km: 359 µM
[29]
  Km: 800 µM
[30]
  Km: 287 µM
[31]
  Km: 134 µM
[32]
  Km: 2.4 µM
[33]
  Km: 9.8 µM
[34]
  Km: 0.3 µM
[35]
  Km: 8300 µM
[36]
  Km: 177 µM
[37]
  Km: 23.8 µM
[38]
  Km: 1.4 µM
[39]
  Km: 0.7 µM

— ChEMBL document CHEMBL1157682, “In silico prediction of human carboxylesterase-1 (hCES1) metabolism combining docking analyses and MD simulations” (Bioorg Med Chem, 2010)
